Measurements from US20030165506A1 (VLAAMS INTERUNIVERSITAIR INSTITUUT VOOR BIOTECHNOLOGIE VZW, published 2003).

T1: β-catenin prey fusion of plasmid pGAD424-βctn (UniProt P35222 14-172)
T1 sequence (looked up): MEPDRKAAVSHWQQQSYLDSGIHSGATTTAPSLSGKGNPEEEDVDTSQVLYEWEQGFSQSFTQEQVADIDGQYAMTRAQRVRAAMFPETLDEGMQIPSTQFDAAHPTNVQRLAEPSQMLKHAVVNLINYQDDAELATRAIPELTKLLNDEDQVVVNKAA

B1: human αT-catenin fused to the LexA binding domain, bait plasmid pLexMG-ATCTN(179-2860) (other)
chain: MKALTARQQEVFDLIRDHISQTGMPPTRAEIAQRLGFRSPNAAEEHLKALARKGVIEIVSGASRGIRLLQEEEEGLPLVGRVAAGEPLLAQQHIEGHYQVDPSLFKPNADFLLRVSGMSMKDIGIMDGDLLAVHKTQDVRNGQVVVARIDDEVTVKRLKKQGNKVELLPENSEFKPIVVDLRQQSFTIEGLAVGVIRNGDWLSAETPITLNIDPQDLQVQTFTVEKLLEPLIIQVTTLVNCPQNPSSRKKGRSKRASVLLASVEEATWNLLDKGEKIAQEATVLKDELTASLEEVRKESEALKVSAERFTDDPCFLPKREAVVQAARALLAAVTRLLILADMIDVMCLLQHVSAFQRTFETLKNVANKSDLQKTYQKLGKELENLDYLAFKRQQDLKSPNQRDEIAGARASLKENSPLLHSICSACLEHSDVASLKASKDTVCEEIQNALNVISNASQGIQNMTTPPEPQAATLGSALDELENLIVLNPLTVTEEEIRPSLEKRLEAIISGAALLADSSCTRDLHRERIIAECNAIRQALQDLLSEYMNNAGKKERSNTLNIALDNMCKKTRDLRRQLRKAIIDHVSDSFLDTTVPLLVLIEAAKNGREKEIKEYAAIFHEHTSRLVEVANLACSMSTNEDGIKIVKIAANHLETLCPQIINAALALAARPKSQAVKNTMEMYKRTWENHIHVLTEAVDDITSIDDFLAVSESHILEDVNKCIIALRDQDADNLDRAAGAIRGRAARVAHIVTGEMDSYEPGAYTEGVMRNVNFLTSTVIPEFVTQVNVALEALSKSSLNVLDDNQFVDISKKIYDTIHDIRCSVMMIRTPEELEDVSDLEEEHEVRSHTSIQTEGKTDRAKMTQLPEAEKEKIAEQVADFKKVKSKLDAEIEIWDDTSNDIIVLAKNMCMIMMEMTDFTRGKGPLKHTTDVIYAAKMISESGSRMDVLARQIANQCPDPSCKQDLLAYLEQIKFYSHQLKICSQVKAEIQNLGGELIMSALDSVTSLIQAAKNLMNAVVQTVKMSYIASTKIIRIQSPAGPRHPVVMWRMKAPAKKPLIKREKPEETCAAVRRGSAKKKIHPLQVMSEFRGRQIY
B2: human αT-catenin fused to the GAL4 binding domain, bait plasmid pGBKT7-ATCTN(179-3024) (other, not shown: large carriers)
chain: SAETPITLNIDPQDLQVQTFTVEKLLEPLIIQVTTLVNCPQNPSSRKKGRSKRASVLLASVEEATWNLLDKGEKIAQEATVLKDELTASLEEVRKESEALKVSAERFTDDPCFLPKREAVVQAARALLAAVTRLLILADMIDVMCLLQHVSAFQRTFETLKNVANKSDLQKTYQKLGKELENLDYLAFKRQQDLKSPNQRDEIAGARASLKENSPLLHSICSACLEHSDVASLKASKDTVCEEIQNALNVISNASQGIQNMTTPPEPQAATLGSALDELENLIVLNPLTVTEEEIRPSLEKRLEAIISGAALLADSSCTRDLHRERIIAECNAIRQALQDLLSEYMNNAGKKERSNTLNIALDNMCKKTRDLRRQLRKAIIDHVSDSFLDTTVPLLVLIEAAKNGREKEIKEYAAIFHEHTSRLVEVANLACSMSTNEDGIKIVKIAANHLETLCPQIINAALALAARPKSQAVKNTMEMYKRTWENHIHVLTEAVDDITSIDDFLAVSESHILEDVNKCIIALRDQDADNLDRAAGAIRGRAARVAHIVTGEMDSYEPGAYTEGVMRNVNFLTSTVIPEFVTQVNVALEALSKSSLNVLDDNQFVDISKKIYDTIHDIRCSVMMIRTPEELEDVSDLEEEHEVRSHTSIQTEGKTDRAKMTQLPEAEKEKIAEQVADFKKVKSKLDAEIEIWDDTSNDIIVLAKNMCMIMMEMTDFTRGKGPLKHTTDVIYAAKMISESGSRMDVLARQIANQCPDPSCKQDLLAYLEQIKFYSHQLKICSQVKAEIQNLGGELIMSALDSVTSLIQAAKNLMNAVVQTVKMSYIASTKIIRIQSPAGPRHPVVMWRMKAPAKKPLIKREKPEETCAAVRRGSAKKKIHPLQVMSEFRGRQIY
B3: amino terminal part of β-catenin, prey fusion of plasmid pGAD424-ATβctn (other, UniProt P35222 14-172, looked up)
chain: T1 sequence (looked up)
notes: domain: amino terminal fragment 239-717; also called amino terminal fragment 239-717 of β-catenin; not shown: fusion partner encoded by the prey vector pGAD424 (Clontech)
B4: nearly full-length human plakoglobin, prey fusion of plasmid pGAD424-Plakoglobin(227-2340) (other, UniProt P14923 37-740, looked up)
chain: VSSKGIMEEDEACGRQYTLKKTTTYTQGVPPSQGDLEYQMSTTARAKRVREAMCPGVSGEDSSLLLATQVEGQATNLQRLAEPSQLLKSAIVHLINYQDDAELATRALPELTKLLNDEDPVVVTKAAMIVNQLSKKEASRRALMGSPQLVAAVVRTMQNTSDLDTARCTTSILHNLSHHREGLLAIFKSGGIPALVRMLSSPVESVLFYAITTLHNLLLYQEGAKMAVRLADGLQKMVPLLNKNNPKFLAITTDCLQLLAYGNQESKLIILANGGPQALVQIMRNYSYEKLLWTTSRVLKVLSVCPSNKPAIVEAGGMQALGKHLTSNSPRLVQNCLWTLRNLSDVATKQEGLESVLKILVNQLSVDDVNVLTCATGTLSNLTCNNSKNKTLVTQNSGVEALIHAILRAGDKDDITEPAVCALRHLTSRHPEAEMAQNSVRLNYGIPAIVKLLNQPNQWPLVKATIGLIRNLALCPANHAPLQEAAVIPRLVQLLVKAHQDAQRHVAAGTQQPYTDGVRMEEIVEGCTGALHILARDPMNRMEIFRLNTIPLFVQLLYSSVENIQRVAAGVLCELAQDKEAADAIDAEGASAPLMELLHSRNEGTATYAAAVLFRISEDKNPDYRKRVSVELTNSLFKHDPAAWEAAQSMIPINEPYGDDMDATYRPMYSSDVPLDPLEMHMDMDGDYPIDTYSDGLRPPYPTA
notes: domain: nearly full-length plakoglobin; not shown: fusion partner encoded by the prey vector pGAD424 (Clontech)

What was measured:
[1] = biological target: T1, β-catenin prey fusion of plasmid …; test: cell-based or functional assay
[2] = biological target: B3; test: cell-based or functional assay
[3] = biological target: T2, human αT-catenin fused to the GAL4 binding domain, bait plasmid pGBT9-ATCTN(179-2860) (human, UniProt P04386 1-147 (Saccharomyces cerevisiae entry)); test: yeast two-hybrid, X-GAL staining of cotransformants
T2 construct: also called αT-catenin bait fusion; hαT-catenin

[4] = biological target: T3, human αE-catenin fused to the GAL4 DNA binding domain, bait plasmid pGBT9-αECTN (human, UniProt P04386 1-147; P35221 2-906); test: as above
T3 construct: no residue limits are printed; also called αE-catenin bait fusion

[5] = biological target: B2; test: yeast two-hybrid, Y190 strain, CPRG quantification (FIG. 7B)
[6] = biological target: T4, human α-catulin fused to the GAL4 DNA binding domain, bait plasmid pGBT9-αctl(50-2264) (human, UniProt P04386 1-147; Q9UBT7 1-734); test: yeast two-hybrid, cotransformation of bait and prey, X-GAL staining (FIG. 7A)
T4 construct: Limits are printed only as cDNA positions (50-2264); also called α-catulin bait fusion

[7] = biological target: T2, human αT-catenin fused to the GAL4 …; test: yeast two-hybrid, X-GAL staining of cotransformants (FIG. 7A)

B1 was tested. Which “β-Galactosidase activity measured using CPRG as a substrate, yeast two-hybrid, L40 yeast strain” value [1] did it give?
The value was ~4 fold against αE-catenin/β-catenin (pLexMG-αEctn plus pGAD424-βctn).

For B2, which “β-Galactosidase activity measured using CPRG as a substrate, yeast two-hybrid, Y190 yeast strain” value [2] is on record?
The value was ~4 fold against αE-catenin/β-catenin (pGBT9-αEctn plus pGAD424-ATβctn).

Does B3 bind [3]?
Result: binds

Does B3 bind [4]?
Result: binds

Does B3 bind [5]?
Result: binds

Does B3 bind [6]?
Result: no binding

Does B4 bind [7]?
Result: binds
